# Data reported in patent publication US7247438.
# T1: purified, recombinant Yama/caspase-3, P42574
# T1 chain: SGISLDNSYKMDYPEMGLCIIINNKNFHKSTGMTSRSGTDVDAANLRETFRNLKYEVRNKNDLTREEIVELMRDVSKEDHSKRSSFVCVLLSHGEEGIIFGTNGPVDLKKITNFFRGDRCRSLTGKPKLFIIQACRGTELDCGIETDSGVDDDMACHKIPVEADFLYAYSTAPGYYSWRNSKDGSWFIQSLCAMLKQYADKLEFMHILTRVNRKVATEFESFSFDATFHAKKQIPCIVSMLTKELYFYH
# Molecular target: T1, purified, recombinant Yama/caspase-3, …
# Experiment: recombinant enzyme labelled with biotinylated inhibitor, blot
# Details: remark: other sources report otherwise
binder,measurement,value
YVAD (modifications not checked) [biotin-YVADamk],fold more enzyme needed for detection,100 times
